B1: OR4K15 (parent)
chain: GUUAACGGUCAUAGGCCAUGGAAACUAGGAGCACCAUUUCGCUGCCAGUGAAGAAAUGAACAAAGAAAAUCUGGGCCAGGCAGGCAUCAAAAGAAAUAGUCUUGCGCUCAACCAGAAAGUCUGUAAUCAUUUUAAGGGUA

Variants of: B1
Assay: self-cleavage, relative activity (ratio to wild type); higher = more cleavage; in vitro, sequencing; the parent is a self-cleaving ribozyme

Row | Variant | self-cleavage
1 | A82U A89U | 0.32
2 | U43C C88U | 1.59
3 | A33U A92G | 1.86
4 | U70C A96G | 0.75
5 | A18U A90U | 1.13
6 | G20U U130C | 1.04
7 | A22U A110G | 0.12
8 | U39C U49C | 0.91
9 | A30G U87A | 0.88
10 | A27G A116U | 0.05
11 | G50U A52G | 0.42
12 | A90U A135G | 2.04
13 | A18G A24G | 1
14 | G8A A59G | 1.47
15 | U39C U130C | 1.12
16 | A24C A92G | 1.9
17 | A60G A126G | 0.27
18 | A33G A118G | 0.49
19 | U37C G79U | 0.12
20 | G106U U122C | 0
21 | A82G A126G | 0.33
22 | A78G A110C | 0.3
23 | A5G A52U | 0.85
24 | A67C | 1.83

Row | Variant | self-cleavage
25 | U2C A111U | 0.27
26 | A22G C35A | 1.2
27 | A33C A68U | 2.07
28 | G48A A91U | 1.71
29 | C71U A91G | 0.41
30 | A89U U108A | 0.02
31 | A5G U57G | 1.17
32 | A114G A117U | 0.4
33 | A62U A89G | 1.95
34 | U39C A47U | 0.79
35 | A36U A95U | 1.37
36 | U43C A110U | 1.68
37 | A47C A56G | 1.35
38 | A59U A134G | 1.02
39 | U26C A66G | 0.9
40 | A23G A27G | 0.89
41 | U43A A118G | 1.25
42 | G20A A52U | 1.8
43 | A89U U131C | 1.47
44 | U70C C101U | 0.12
45 | A51G A91G | 0.5
46 | A51G A116G | 0.48
47 | A5U A51U | 0.66
48 | A18U A129G | 1.24

Row | Variant | self-cleavage
49 | A82G A111U | 0.09
50 | A11G A64U | 0.97
51 | A13G A78G | 0.52
52 | U37C A114G | 0.34
53 | A55G U100C | 1.93
54 | G28U A30G | 1.48
55 | A33C A91G | 1.57
56 | A13G A64G | 0.88
57 | A66G U130C | 1.68
58 | U72A A89G | 0.36
59 | A11U A129G | 1.27
60 | U2C U122A | 1.85
61 | A68G C88U | 1.57
62 | A11C A13U | 1.09
63 | A24G U87C | 1.18
64 | A52U A78G | 0.24
65 | U38G A116G | 1.67
66 | A33G A114G | 0.11
67 | U2C C61U | 1.77
68 | A62G A110G | 0.16
69 | A51G A95U | 0.89
70 | A24U A114U | 0.22
71 | A111G A118U | 0
72 | G123U | 1.59

Row | Variant | self-cleavage
73 | A59U U132A | 1.61
74 | A24G G104A | 0.04
75 | A86U A116G | 0.59
76 | A11U G84A | 2.42
77 | A64U A126G | 1.12
78 | A111G U131C | 0.01
79 | A92G A126C | 0.94
80 | A62G A91U | 1.61
81 | A94U A118C | 1.53
82 | A22G A126C | 0.67
83 | U26C U124C | 1.05
84 | U37C U132C | 1.54
85 | A11G A96G | 1.18
86 | A30G A92G | 1.05
87 | U43C A62U | 2.19
88 | C81G A82G | 0.3
89 | A55G G137A | 1.82
90 | A36U A60U | 2.08
91 | G44U A135G | 1.6
92 | A13G G75C | 0.43
93 | U12C A118G | 0.61
94 | C10A U37C | 1
95 | C71U | 0.17
96 | A63G U72A | 0.33

Row | Variant | self-cleavage
97 | A30C A55G | 1.44
98 | C121U | 1.65
99 | A5C U100C | 1.25
100 | U39G A126G | 1.03
101 | C6U A67G | 1.39
102 | A60U U87C | 1.43
103 | U26C A82G | 0.5
104 | G7A A62U | 1.38
105 | U2C C25U | 1.85
106 | A86G A125G | 0.45
107 | A24G A89U | 1.41
108 | A4U A47G | 0
109 | G28U A52G | 1.37
110 | A24U G28C | 1.02
111 | A69C A90G | 0.37
112 | U72C U103C | 0.09
113 | A68G A78U | 0.13
114 | A11G U72C | 0.21
115 | A11U U103C | 0.73
116 | A22G C77U | 1.62
117 | U57A A110C | 0.17
118 | U72G A111U | 0.04
119 | A47U A91G | 0.88
120 | C61U A116G | 0.39

Row | Variant | self-cleavage
121 | U131A U132A | 0.14
122 | U72C A110G | 0.06
123 | A98G U133C | 0.65
124 | U43A A117G | 2.17
125 | A30G U57A | 1.15
126 | U100C A126G | 1.86
127 | A33G A63G | 0.45
128 | A11C A82U | 0.36
129 | A60G A96G | 1.47
130 | A30G A51U | 1.46
131 | A64G A91G | 1.33
132 | C105U A114G | 0.07
133 | A52U A90U | 2.35
134 | A22G G29C | 2.4
135 | A117U U132C | 0.88
136 | A62G A134G | 1.72
137 | A60C G65A | 0.54
138 | A22U U26C | 0.97
139 | A22U A92U | 2.17
140 | A78G A95G | 0.26
141 | A92C C101A | 0.13
142 | A23U G123A | 1.5
143 | U38C | 1.45
144 | A54U A56U | 1.8

Row | Variant | self-cleavage
145 | G28A A91G | 1.19
146 | U19C G136A | 1.38
147 | A86G A117G | 1.45
148 | A47U G75A | 0.14
149 | A36G A117G | 2.27
150 | A78G G123U | 0.25
151 | C10U U39A | 0.81
152 | U49C A90C | 0.97
153 | A60G U127G | 1.52
154 | U39A A64U | 1.87
155 | U3A A126G | 1.73
156 | U97A U131C | 1.62
157 | U37C A116G | 0.98
158 | A64U A89U | 0.92
159 | U38C U57C | 0.83
160 | G44A G74A | 0.17
161 | A54G A78G | 0.3
162 | A33U A69G | 1.71
163 | U38A A51G | 1.33
164 | U72C A89U | 0.45
165 | A33G A116C | 0.14
166 | A110G G123A | 0.29
167 | A86U C109U | 0.6

Reference: the RNAGym collection of RNA variant scans (doi:10.7554/elife.90254)
